The supplement of paper PMC9112550, “Optimization of the antimicrobial peptide Bac7 by deep mutational scanning” (BMC Biology, 2022)

What follows are sequences tested on Escherichia coli TOP10 (assay: shrunken log2 fold change of peptide-encoding DNA abundance (4.5 h post-induction vs induction); higher = less antimicrobial activity (less host growth inhibition)). Conditions: time post-induction: 4.5 h; library: site-saturation at positions 5, 18, 19, 20.
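Further: peptides expressed intracellularly from a pBAD plasmid library in pooled LB shake-flask culture, induced with 0.3% L-arabinose, DNA abundance read by NGS, three biological replicates, DESeq2 with apeglm shrinkage.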

Sequence	shrunken log2 fold change
RRIRHRPPRLPRPRPRPPPMPRP	0.557
RRIRHRPPRLPRPRPRPPRYPRP	0.0399
RRIRHRPPRLPRPRPRPPSNPRP	0.0232
RRIRHRPPRLPRPRPRPPSYPRP	-0.266
RRIRHRPPRLPRPRPRPPTEPRP	0.159
RRIRHRPPRLPRPRPRPPTHPRP	-0.117
RRIRHRPPRLPRPRPRPPVLPRP	0.0936
RRIRHRPPRLPRPRPRPPVNPRP	0.0303
RRIRHRPPRLPRPRPRPPVTPRP	-0.0642
RRIRHRPPRLPRPRPRPPWQPRP	-0.0158
RRIRHRPPRLPRPRPRPPWSPRP	0.093
RRIRHRPPRLPRPRPRPQAPPRP	-0.0401
RRIRHRPPRLPRPRPRPQARPRP	0.225
RRIRHRPPRLPRPRPRPQAVPRP	0.00884
RRIRHRPPRLPRPRPRPQCVPRP	0.00938
RRIRHRPPRLPRPRPRPQFMPRP	-0.864
RRIRHRPPRLPRPRPRPQGIPRP	0.0372
RRIRHRPPRLPRPRPRPQICPRP	0.00386
RRIRHRPPRLPRPRPRPQIDPRP	-0.123
RRIRHRPPRLPRPRPRPQIQPRP	-0.0515
RRIRHRPPRLPRPRPRPQKIPRP	0.0342
RRIRHRPPRLPRPRPRPQKMPRP	-0.132

Sequence	shrunken log2 fold change
RRIRHRPPRLPRPRPRPQLKPRP	0.114
RRIRHRPPRLPRPRPRPQLVPRP	-0.0576
RRIRHRPPRLPRPRPRPQMAPRP	-0.191
RRIRHRPPRLPRPRPRPQMMPRP	-0.279
RRIRHRPPRLPRPRPRPQNRPRP	-0.0146
RRIRHRPPRLPRPRPRPQNWPRP	0.0558
RRIRHRPPRLPRPRPRPQPVPRP	0.259
RRIRHRPPRLPRPRPRPQQDPRP	-0.147
RRIRHRPPRLPRPRPRPQQWPRP	-0.178
RRIRHRPPRLPRPRPRPQQYPRP	-0.706
RRIRHRPPRLPRPRPRPQRPPRP	0.183
RRIRHRPPRLPRPRPRPQSQPRP	-0.127
RRIRHRPPRLPRPRPRPQTAPRP	0.00296
RRIRHRPPRLPRPRPRPQTHPRP	-0.143
RRIRHRPPRLPRPRPRPQTMPRP	3.11
RRIRHRPPRLPRPRPRPQWEPRP	-0.0718
RRIRHRPPRLPRPRPRPQWHPRP	-0.299
RRIRHRPPRLPRPRPRPQYWPRP	-0.806
RRIRHRPPRLPRPRPRPRDPPRP	-0.153
RRIRHRPPRLPRPRPRPRDSPRP	0.0922
RRIRHRPPRLPRPRPRPRDVPRP	-0.191
RRIRHRPPRLPRPRPRPREKPRP	-0.0164

Sequence	shrunken log2 fold change
RRIRHRPPRLPRPRPRPRFHPRP	-0.162
RRIRHRPPRLPRPRPRPRFQPRP	0.00482
RRIRHRPPRLPRPRPRPRFYPRP	-0.015
RRIRHRPPRLPRPRPRPRGFPRP	0.0657
RRIRHRPPRLPRPRPRPRIMPRP	-0.577
RRIRHRPPRLPRPRPRPRITPRP	-0.0394
RRIRHRPPRLPRPRPRPRKVPRP	-0.0134
RRIRHRPPRLPRPRPRPRLCPRP	0.0797
RRIRHRPPRLPRPRPRPRLGPRP	0.143
RRIRHRPPRLPRPRPRPRMSPRP	-0.0693
RRIRHRPPRLPRPRPRPRNSPRP	-0.05
RRIRHRPPRLPRPRPRPRNYPRP	-0.282
RRIRHRPPRLPRPRPRPRQFPRP	-0.0158
RRIRHRPPRLPRPRPRPRQPPRP	0.474
RRIRHRPPRLPRPRPRPRQRPRP	0.162
RRIRHRPPRLPRPRPRPRRFPRP	0.379
RRIRHRPPRLPRPRPRPRTQPRP	0.0696
RRIRHRPPRLPRPRPRPRTRPRP	0.476
RRIRHRPPRLPRPRPRPRWEPRP	0.136
RRIRHRPPRLPRPRPRPRYMPRP	-0.559
RRIRHRPPRLPRPRPRPSAFPRP	-0.435
RRIRHRPPRLPRPRPRPSAMPRP	0.06

Sequence	shrunken log2 fold change
RRIRHRPPRLPRPRPRPSAVPRP	-0.341
RRIRHRPPRLPRPRPRPSFFPRP	-0.41
RRIRHRPPRLPRPRPRPSFVPRP	-0.38
RRIRHRPPRLPRPRPRPSGIPRP	-0.0153
RRIRHRPPRLPRPRPRPSHDPRP	-0.0756
RRIRHRPPRLPRPRPRPSHIPRP	-0.307
RRIRHRPPRLPRPRPRPSIPPRP	-0.868
RRIRHRPPRLPRPRPRPSIVPRP	-0.0474
RRIRHRPPRLPRPRPRPSKVPRP	-0.146
RRIRHRPPRLPRPRPRPSLMPRP	0.0202
RRIRHRPPRLPRPRPRPSNQPRP	-0.616
RRIRHRPPRLPRPRPRPSNTPRP	-0.278
RRIRHRPPRLPRPRPRPSPAPRP	0.108
RRIRHRPPRLPRPRPRPSPCPRP	-0.225
RRIRHRPPRLPRPRPRPSQCPRP	-0.325
RRIRHRPPRLPRPRPRPSRCPRP	-0.648
RRIRHRPPRLPRPRPRPSSQPRP	-0.152
RRIRHRPPRLPRPRPRPSSRPRP	-0.175
RRIRHRPPRLPRPRPRPSSVPRP	0.0608
RRIRHRPPRLPRPRPRPSTTPRP	-0.416
RRIRHRPPRLPRPRPRPSYAPRP	-0.21
RRIRHRPPRLPRPRPRPSYGPRP	-0.34

Sequence	shrunken log2 fold change
RRIRHRPPRLPRPRPRPTAPPRP	0.184
RRIRHRPPRLPRPRPRPTCCPRP	-0.125
RRIRHRPPRLPRPRPRPTDKPRP	-0.185
RRIRHRPPRLPRPRPRPTDRPRP	0.0577
RRIRHRPPRLPRPRPRPTFTPRP	-0.265
RRIRHRPPRLPRPRPRPTGVPRP	0.18
RRIRHRPPRLPRPRPRPTHHPRP	-0.132
RRIRHRPPRLPRPRPRPTHNPRP	-0.211
RRIRHRPPRLPRPRPRPTHRPRP	0.0822
RRIRHRPPRLPRPRPRPTHTPRP	-0.00887
RRIRHRPPRLPRPRPRPTHVPRP	0.0105
RRIRHRPPRLPRPRPRPTKRPRP	-0.0644
RRIRHRPPRLPRPRPRPTLNPRP	0.134
RRIRHRPPRLPRPRPRPTMHPRP	-0.0232
RRIRHRPPRLPRPRPRPTPYPRP	-0.0416
RRIRHRPPRLPRPRPRPTQAPRP	0.255
RRIRHRPPRLPRPRPRPTQQPRP	0.0495
RRIRHRPPRLPRPRPRPTQTPRP	-0.0128
RRIRHRPPRLPRPRPRPTSIPRP	0.0484
RRIRHRPPRLPRPRPRPTSKPRP	-0.125
RRIRHRPPRLPRPRPRPTTYPRP	-0.9
